According to patent publication US20200199204A1:

Tests used:
Assay in all cases: cell-based or functional assay
[1] = target: HIV-1 Env of 0260.v5.c36 (HIV-1)
[2] = target: HIV-1 Env of 191821.E6.1 (HIV-1)
[3] = target: HIV-1 Env of 3016.V5.c36 (HIV-1)
[4] = target: HIV-1 Env of 6405.v4.c34 (HIV-1)
[5] = target: HIV-1 Env of 6535.3 (HIV-1)
[6] = target: HIV-1 Env of 96ZM651.02 (HIV-1)
[7] = target: HIV-1 Env of AC10.29 (HIV-1)
[8] = target: HIV-1 Env of BG505.w6m (HIV-1)
[9] = target: HIV-1 Env of C1080.c3 (HIV-1)
[10] = target: HIV-1 Env of CAAN.A2 (HIV-1)
[11] = target: HIV-1 Env of CAP210.E8 (HIV-1)
[12] = target: HIV-1 Env of CAP244.D3 (HIV-1)
[13] = target: HIV-1 Env of CAP256.PI (HIV-1)
[14] = target: HIV-1 Env of CAP256.SU (HIV-1)
[15] = target: HIV-1 Env of CAP45.G3 (HIV-1)
[16] = target: HIV-1 Env of CM244.ec1 (HIV-1)
[17] = target: HIV-1 Env of CNE3 (HIV-1)
[18] = target: HIV-1 Env of DU156.12 (HIV-1)
[19] = target: HIV-1 Env of DU172.17 (HIV-1)
[20] = target: HIV-1 Env of DU422.01 (HIV-1)
[21] = target: HIV-1 Env of KER2008.12 (HIV-1)
[22] = target: HIV-1 Env of KER2018.11 (HIV-1)
[23] = target: HIV-1 Env of MB201 (HIV-1)
[24] = target: HIV-1 Env of MB539.2B7 (HIV-1)
[25] = target: HIV-1 Env of PVO.04 (HIV-1)
[26] = target: HIV-1 Env of Q168.a2 (HIV-1)
[27] = target: HIV-1 Env of Q23.17 (HIV-1)
[28] = target: HIV-1 Env of Q259.d2.17 (HIV-1)
[29] = target: HIV-1 Env of Q461.e2 (HIV-1)
[30] = target: HIV-1 Env of Q769.d22 (HIV-1)
[31] = target: HIV-1 Env of Q842.d12 (HIV-1)
[32] = target: HIV-1 Env of QH0692.42 (HIV-1)
[33] = target: HIV-1 Env of REJO.67 (HIV-1)
[34] = target: HIV-1 Env of RHPA.7 (HIV-1)
[35] = target: HIV-1 Env of RW020.2 (HIV-1)
[36] = target: HIV-1 Env of SC422.8 (HIV-1)
[37] = target: HIV-1 Env of TH976.17 (HIV-1)
[38] = target: HIV-1 Env of THRO.18 (HIV-1)
[39] = target: HIV-1 Env of TRJO.58 (HIV-1)
[40] = target: HIV-1 Env of TRO.11 (HIV-1)
[41] = target: HIV-1 Env of UG037.8 (HIV-1)
[42] = target: HIV-1 Env of WITO.33 (HIV-1)
[43] = target: HIV-1 Env of ZM109.4 (HIV-1)
[44] = target: HIV-1 Env of ZM135.10a (HIV-1)
[45] = target: HIV-1 Env of ZM197.7 (HIV-1)
[46] = target: HIV-1 Env of ZM214.15 (HIV-1)
[47] = target: HIV-1 Env of ZM233.6 (HIV-1)
[48] = target: HIV-1 Env of ZM249.1 (HIV-1)
[49] = target: HIV-1 Env of ZM53.12 (HIV-1)

CAP256-VRC26.16 (antibody)
IC50 [1]: > 50 mg/L | IC50 [2]: 0.82 mg/L | IC50 [3]: 0.012 mg/L | IC50 [4]: > 50 mg/L | IC50 [5]: > 50 mg/L | IC50 [6]: > 50 mg/L | IC50 [7]: > 50 mg/L | IC50 [8]: 0.36 mg/L | IC50 [9]: 5.9 mg/L | IC50 [10]: > 50 mg/L | IC50 [11]: 0.009 mg/L | IC50 [12]: > 50 mg/L | IC50 [13]: > 50 mg/L | IC50 [14]: 0.004 mg/L | IC50 [15]: > 50 mg/L | IC50 [16]: 0.67 mg/L | IC50 [17]: > 50 mg/L | IC50 [18]: 48.7 mg/L | IC50 [19]: > 50 mg/L | IC50 [20]: 3.9 mg/L | IC50 [21]: > 50 mg/L | IC50 [22]: 0.062 mg/L | IC50 [23]: > 50 mg/L | IC50 [24]: > 50 mg/L | IC50 [25]: > 50 mg/L | IC50 [26]: > 50 mg/L | IC50 [27]: > 50 mg/L | IC50 [28]: 5.78 mg/L | IC50 [29]: > 50 mg/L | IC50 [30]: > 50 mg/L | IC50 [31]: > 50 mg/L | IC50 [32]: > 50 mg/L | IC50 [33]: > 50 mg/L | IC50 [34]: > 50 mg/L | IC50 [35]: > 50 mg/L | IC50 [36]: > 50 mg/L | IC50 [37]: > 50 mg/L | IC50 [38]: > 50 mg/L | IC50 [39]: > 50 mg/L | IC50 [40]: > 50 mg/L | IC50 [41]: > 50 mg/L | IC50 [42]: > 50 mg/L | IC50 [43]: > 50 mg/L | IC50 [44]: > 50 mg/L | IC50 [45]: 2.21 mg/L | IC50 [46]: > 50 mg/L | IC50 [47]: 0.031 mg/L | IC50 [48]: 45 mg/L | IC50 [49]: 0.006 mg/L

CAP256-VRC26.19 (antibody)
IC50 [1]: > 50 mg/L | IC50 [2]: 29.2 mg/L | IC50 [3]: 0.039 mg/L | IC50 [4]: > 50 mg/L | IC50 [5]: > 50 mg/L | IC50 [6]: > 50 mg/L | IC50 [7]: 2.98 mg/L | IC50 [8]: 0.13 mg/L | IC50 [9]: 14.5 mg/L | IC50 [10]: > 50 mg/L | IC50 [11]: 0.025 mg/L | IC50 [12]: > 50 mg/L | IC50 [13]: > 50 mg/L | IC50 [14]: 0.015 mg/L | IC50 [15]: > 50 mg/L | IC50 [16]: 0.024 mg/L | IC50 (neutralization, TZM-bl) [17]: > 50 mg/L | IC50 [18]: 1.34 mg/L | IC50 [19]: > 50 mg/L | IC50 [20]: 0.057 mg/L | IC50 [21]: > 50 mg/L | IC50 [22]: 0.005 mg/L | IC50 [23]: > 50 mg/L | IC50 [24]: 0.431 mg/L | IC50 [25]: 1.1 mg/L | IC50 [26]: 7.04 mg/L | IC50 [27]: 0.233 mg/L | IC50 [28]: 2.16 mg/L | IC50 [29]: 15.6 mg/L | IC50 [30]: > 50 mg/L | IC50 [31]: 0.16 mg/L | IC50 [32]: > 50 mg/L | IC50 [33]: > 50 mg/L | IC50 [34]: > 50 mg/L | IC50 [35]: > 50 mg/L | IC50 [36]: > 50 mg/L | IC50 (neutralization, TZM-bl) [37]: > 50 mg/L | IC50 [38]: > 50 mg/L | IC50 [39]: > 50 mg/L | IC50 [40]: > 50 mg/L | IC50 [41]: > 50 mg/L | IC50 [42]: > 50 mg/L | IC50 [43]: 2.82 mg/L | IC50 [44]: > 50 mg/L | IC50 [45]: 0.135 mg/L | IC50 [46]: > 50 mg/L | IC50 [47]: 0.009 mg/L | IC50 [48]: 0.076 mg/L | IC50 [49]: 0.02 mg/L

CAP256-VRC26.22 (antibody)
IC50 [1]: > 50 mg/L | IC50 [2]: 2.12 mg/L | IC50 [3]: 0.022 mg/L | IC50 [4]: > 50 mg/L | IC50 [5]: > 50 mg/L | IC50 [6]: > 50 mg/L | IC50 [7]: > 50 mg/L | IC50 [8]: 0.035 mg/L | IC50 [9]: 0.013 mg/L | IC50 [10]: > 50 mg/L | IC50 [11]: 0.003 mg/L | IC50 [12]: > 50 mg/L | IC50 [13]: > 50 mg/L | IC50 [14]: 0.002 mg/L | IC50 [15]: 1.4 mg/L | IC50 [16]: 4.54 mg/L | IC50 (neutralization, TZM-bl) [17]: > 50 mg/L | IC50 [18]: 0.15 mg/L | IC50 [19]: > 50 mg/L | IC50 [20]: 0.012 mg/L | IC50 [21]: 1.23 mg/L | IC50 [22]: 0.002 mg/L | IC50 [23]: > 50 mg/L | IC50 [24]: 17.9 mg/L | IC50 [25]: 9.03 mg/L | IC50 [26]: 0.007 mg/L | IC50 [27]: 0.006 mg/L | IC50 [28]: 0.005 mg/L | IC50 [29]: 4.1 mg/L | IC50 [30]: > 50 mg/L | IC50 [31]: 0.63 mg/L | IC50 [32]: > 50 mg/L | IC50 [33]: > 50 mg/L | IC50 [34]: > 50 mg/L | IC50 [35]: > 50 mg/L | IC50 [36]: > 50 mg/L | IC50 (neutralization, TZM-bl) [37]: > 50 mg/L | IC50 [38]: > 50 mg/L | IC50 [39]: > 50 mg/L | IC50 [40]: > 50 mg/L | IC50 [41]: > 50 mg/L | IC50 [42]: > 50 mg/L | IC50 [43]: > 50 mg/L | IC50 [44]: > 50 mg/L | IC50 [45]: 0.09 mg/L | IC50 [46]: > 50 mg/L | IC50 [47]: 0.001 mg/L | IC50 [48]: 0.13 mg/L | IC50 [49]: 0.002 mg/L
